Values quoted from earlier work, collected in article PMC4526918.

Molecular target: HAESA-LIKE2 (HSL2) (Arabidopsis thaliana) (UniProt C0LGX3)
Sequence of UniProt C0LGX3 (C0LGX3 29-632): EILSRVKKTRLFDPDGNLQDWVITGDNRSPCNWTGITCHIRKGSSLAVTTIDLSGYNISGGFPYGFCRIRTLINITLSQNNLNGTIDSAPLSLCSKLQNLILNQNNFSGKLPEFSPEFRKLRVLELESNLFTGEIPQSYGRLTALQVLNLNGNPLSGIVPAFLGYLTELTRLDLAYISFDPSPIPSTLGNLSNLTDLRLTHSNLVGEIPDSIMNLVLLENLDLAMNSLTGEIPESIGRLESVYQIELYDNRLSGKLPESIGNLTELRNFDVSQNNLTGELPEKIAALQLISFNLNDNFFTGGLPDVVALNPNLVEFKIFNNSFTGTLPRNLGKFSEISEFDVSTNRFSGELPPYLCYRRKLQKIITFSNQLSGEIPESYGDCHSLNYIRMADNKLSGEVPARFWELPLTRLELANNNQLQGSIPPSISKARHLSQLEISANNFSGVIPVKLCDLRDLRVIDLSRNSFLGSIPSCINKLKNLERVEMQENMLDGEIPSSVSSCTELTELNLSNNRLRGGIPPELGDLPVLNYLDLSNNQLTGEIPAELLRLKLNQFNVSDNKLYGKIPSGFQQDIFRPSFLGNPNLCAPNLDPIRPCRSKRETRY

Kd: 20 nM
Substance: IDA peptide (IDAp) (from UniProt Q8LAD7)
